Experimental data taken from US20210032365A1 (Chugai, published 2021).
Changes are numbered by the printed parent chain. Blank lines part the entries; values can stand above or below the binder they belong to.

What was measured:
[1] = biological target: T1, human C1s (human, UniProt P09871 16-688); assay: SPR, Ab captured; pH 5.8, 1.2 mM Ca
T1 construct: also called hC1s; serum-derived human C1s (CompTech)
T1 sequence: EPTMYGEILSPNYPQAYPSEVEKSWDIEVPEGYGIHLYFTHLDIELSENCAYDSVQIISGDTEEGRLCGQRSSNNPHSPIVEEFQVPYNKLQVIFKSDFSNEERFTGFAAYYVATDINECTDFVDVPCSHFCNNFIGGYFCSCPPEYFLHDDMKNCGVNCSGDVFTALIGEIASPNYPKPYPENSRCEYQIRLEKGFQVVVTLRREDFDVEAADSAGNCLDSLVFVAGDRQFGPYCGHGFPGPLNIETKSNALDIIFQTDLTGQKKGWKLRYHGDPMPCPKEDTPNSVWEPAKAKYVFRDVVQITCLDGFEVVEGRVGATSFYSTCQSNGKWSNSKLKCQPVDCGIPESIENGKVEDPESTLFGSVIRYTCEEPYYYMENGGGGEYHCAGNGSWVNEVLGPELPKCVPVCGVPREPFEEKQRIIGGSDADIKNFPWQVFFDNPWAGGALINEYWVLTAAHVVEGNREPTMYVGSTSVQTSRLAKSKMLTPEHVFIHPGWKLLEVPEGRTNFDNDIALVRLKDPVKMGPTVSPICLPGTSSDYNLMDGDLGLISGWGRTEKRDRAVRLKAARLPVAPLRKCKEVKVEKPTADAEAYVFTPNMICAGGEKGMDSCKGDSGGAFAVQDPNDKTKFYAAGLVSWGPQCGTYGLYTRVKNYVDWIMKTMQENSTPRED
Procedure: (§1) All variants were transiently expressed and purified by the method described above. The binding affinity of each histidine-substituted variant at pH 7.4 and pH 5.8 was determined at 37 degrees C. using Biacore T200 instrument (GE Healthcare). Recombinant Protein A/G (Pierce) was immobilized onto all flow cells of a CM4 sensor chip using an amine coupling kit (GE Healthcare). Antibodies and analytes were prepared in 7(+) buffer (20 mM ACES, 150 mM NaCl, 1.2 mM CaCl2, 0.05% Tween 20, 0.005% NaN3, pH 7.4), 5(+) buffer (20 mM ACES, 150 mM NaCl, 1.2 mM CaCl2, 0.05% Tween 20, 0.005% NaN3, pH 5.8), or 5(−) buffer (20 mM ACES, 150 mM NaCl, 3 micro M CaCl2, 0.05% Tween 20, 0.005% NaN3, pH 5.8). Each antibody was captured onto the sensor surface by protein A/G. Antibody capture levels were aimed at 200 resonance unit (RU). Serum-derived human C1s (CompTech) or recombinant C1s prepared in EXAMPLE 1 was injected at 50 nM, followed by dissociation. The sensor surface was regenerated in each cycle with 10 mM Glycine-HCl, pH 1.5. […] The ratio of KD 5.8+ to KD 7.4+(“KD 5+/7+”) and that of KD 5.8− to KD 7.4+(“KD 5−/7+”) were calculated. When the KD 5+/7+ or KD 5−/7+ of a variant is larger than that of the parent antibody IPN009VH2-SG4GK/IPN009VK3-SK1, that variant is considered to be “pH”- or “pH and Ca”-dependent, respectively. When binding response in 5(+) buffer and/or in 5(−) buffer of a variant is much lower than that of IPN09VH2/IPN009VK3, that variant is also considered as “pH”- and/or “pH and Ca”-dependent. Therefore, such mutations are effective to generate “pH”- and/or “pH and Ca”-dependent antibody. To further enhance “pH” and/or “pH and Ca” dependency, a combination of histidine mutations was conducted. Antibodies with combinations of histidine mutations were evaluated using Biacore by the method described above.

[2] = biological target: T1, human C1s; assay: SPR; KD pH 5.8 3 uM Ca / KD pH 7.4 1.2 mM Ca
Procedure: as §1

[3] = biological target: T1, human C1s; assay: SPR; KD pH 5.8 1.2 mM Ca / KD pH 7.4 1.2 mM Ca
Procedure: as §1

[4] = biological target: T1, human C1s; assay: SPR, Ab captured; pH 5.8, 3 uM Ca
Procedure: as §1

[5] = biological target: T1, human C1s; assay: SPR, Ab captured; pH 7.4, 1.2 mM Ca
Procedure: as §1

B3: C1_IPN009VH2-SG4GK/IPN93L0031-SK1 (antibody, human IgG4 S228P, kappa, name in Kabat numbering, V domains shown)
VH: EVMLVESGGGLVKPGGSLRLSCAASGFTFSNYAMSWVRQAPGKGLEWVATISSGGSHTYYLDSVKGRFTISRDNSKDTLYLQMNSLRAEDTALYYCARLFTGYAMDYWGQGTLVTVSS
VL: QIVLTQSPATLSLSPGERATLSCTASSSVSSSYLHWYQQKPGKAPKLWIYSTSNLASGVPSRFSGSGSGTDYTLTISSLQPEDFATYYCHQYHRHHPITFGQGTKLEIKR
notes: also called IPN009VH2/IPN93L0031
koff [1]: 0.0127 s⁻¹
kon [1]: 532000 M⁻¹ s⁻¹
KD 5(-)/7(+) [2]: 29500
KD 5(+)/7(+) [3]: 142
koff [4]: 0.00352 s⁻¹
kon [4]: 711 M⁻¹ s⁻¹
koff [5]: 8e-06 s⁻¹
kon [5]: 47600 M⁻¹ s⁻¹

B4: C1_IPN92H0026-SG4GK/IPN93L0028-SK1 (antibody, human IgG4 S228P, kappa, name in Kabat numbering, V domains shown)
VH: B3 VH with G66H
VL: B3 VL with H96P
notes: also called IPN92H0026/IPN93L0028
Kd [1]: 10.6 nM
koff [1]: 0.0059 s⁻¹
kon [1]: 557000 M⁻¹ s⁻¹
KD 5(-)/7(+) [2]: 5.8
KD 5(+)/7(+) [3]: 2.2
Kd [4]: 27.6 nM
koff [4]: 0.176 s⁻¹
kon [4]: 6.4e+06 M⁻¹ s⁻¹
Kd [5]: 4.76 nM
koff [5]: 0.00255 s⁻¹
kon [5]: 535000 M⁻¹ s⁻¹

B5: C1_IPN92H0026-SG4GK/IPN93L0030-SK1 (antibody, human IgG4 S228P, kappa, name in Kabat numbering, V domains shown)
VH: B3 VH with G66H
VL: B3 VL with H93Y
notes: also called IPN92H0026/IPN93L0030
Kd [1]: 26.2 nM
koff [1]: 0.0592 s⁻¹
kon [1]: 2.26e+06 M⁻¹ s⁻¹
KD 5(-)/7(+) [2]: 10.9
KD 5(+)/7(+) [3]: 1.1
Kd [4]: 270 nM
koff [4]: 0.0012 s⁻¹
kon [4]: 4460 M⁻¹ s⁻¹
Kd [5]: 24.8 nM
koff [5]: 0.0103 s⁻¹
kon [5]: 414000 M⁻¹ s⁻¹

B7: C1_IPN009VH2-SG4GK/IPN93L0030-SK1 (antibody, human IgG4 S228P, kappa, name in Kabat numbering, V domains shown)
VH: B3 VH
VL: B3 VL with H93Y
notes: also called IPN009VH2/IPN93L0030
Kd [1]: 45.6 nM
koff [1]: 0.0222 s⁻¹
kon [1]: 487000 M⁻¹ s⁻¹
KD 5(-)/7(+) [2]: 0.1
KD 5(+)/7(+) [3]: 1.8
Kd [4]: 1.3 nM
koff [4]: 0.00577 s⁻¹
kon [4]: 4.42e+06 M⁻¹ s⁻¹
Kd [5]: 25.5 nM
koff [5]: 0.0156 s⁻¹
kon [5]: 612000 M⁻¹ s⁻¹

B8: C1_IPN009VH2-SG4GK/IPN93L0029-SK1 (antibody, human IgG4 S228P, kappa, name in Kabat numbering, V domains shown)
VH: B3 VH
VL: B3 VL with H95L
notes: also called IPN009VH2/IPN93L0029
Kd [1]: 15.5 nM
koff [1]: 0.00857 s⁻¹
kon [1]: 553000 M⁻¹ s⁻¹
KD 5(-)/7(+) [2]: 0.3
KD 5(+)/7(+) [3]: 0.9
Kd [4]: 5.54 nM
koff [4]: 0.00296 s⁻¹
kon [4]: 534000 M⁻¹ s⁻¹
Kd [5]: 18.2 nM
koff [5]: 0.00897 s⁻¹
kon [5]: 494000 M⁻¹ s⁻¹

Now from value to binder:

Kd [1]: 5.01 nM
koff [1]: 0.00293 s⁻¹
kon [1]: 585000 M⁻¹ s⁻¹
KD 5(-)/7(+) [2]: 4
KD 5(+)/7(+) [3]: 2.6
Kd [4]: 7.59 nM
Kd [5]: 1.92 nM
koff [5]: 0.000672 s⁻¹
kon [5]: 350000 M⁻¹ s⁻¹
B1: C1_IPN92H0033-SG4GK/IPN93L0021-SK1 (antibody, human IgG4 S228P, kappa, name in Kabat numbering, V domains shown)
VH: B3 VH with Y103H
VL: B3 VL with H95L, H96P
notes: also called IPN92H0033/IPN93L0021

Kd [1]: 4290 nM
koff [1]: 0.0178 s⁻¹
kon [1]: 4140 M⁻¹ s⁻¹
KD 5(-)/7(+) [2]: 0.3
KD 5(+)/7(+) [3]: 6.3
Kd [4]: 215 nM
koff [4]: 0.00133 s⁻¹
kon [4]: 6170 M⁻¹ s⁻¹
Kd [5]: 684 nM
koff [5]: 0.016 s⁻¹
kon [5]: 23300 M⁻¹ s⁻¹
B2: C1_IPN92H0026-SG4GK/IPN93L0031-SK1 (antibody, human IgG4 S228P, kappa, name in Kabat numbering, V domains shown)
VH: B3 VH with G66H
VL: B3 VL
notes: also called IPN92H0026/IPN93L0031

Kd [1]: 24.6 nM
koff [1]: 0.0222 s⁻¹
kon [1]: 905000 M⁻¹ s⁻¹
KD 5(-)/7(+) [2]: 0.6
KD 5(+)/7(+) [3]: 1.6
Kd [4]: 9.79 nM
koff [4]: 0.00376 s⁻¹
kon [4]: 384000 M⁻¹ s⁻¹
Kd [5]: 15.4 nM
koff [5]: 0.0074 s⁻¹
kon [5]: 479000 M⁻¹ s⁻¹
B6: C1_IPN92H0033-SG4GK/IPN93L0029-SK1 (antibody, human IgG4 S228P, kappa, name in Kabat numbering, V domains shown)
VH: B3 VH with Y103H
VL: B3 VL with H95L
notes: also called IPN92H0033/IPN93L0029
